Data from patent US20210079558A1.

Biological target: Protein A expressed on Staphylococcus aureus (Staphylococcus aureus) (UniProt P38507)
Assay: yeast display; one round of selection with cell-surface biotinylated S. aureus and magnetic streptavidin-coated beads; GFP+ yeast counted by flow cytometry

Fc region of the human IgG1 protein N297Q (aglycosylated) mutant, displayed on the surface of yeast
fold enrichment of GFP+ yeast: 30 fold
